What was measured:
Assay in all cases: ELISA
Set-up in all cases: key: 0 = <0.5 OD, 1 = 0.5-1.0 OD, 4 = 1-4 OD
610 = molecular target: T1, 610
T1 construct: H3-23 K4-1; also called PIN610
Source text: (§1) Before specificity screening, all of the clonal immunogen-positive hybridoma supernatants were re-screened on the immunogen, a non-family member Id protein, and KLH, if animals were immunized with Id protein that has been conjugated KLH. As described above, this screen identifies HC-specific clones but not mAbs against the light chain constant region. Clones identified positive to the immunogen and KLH were […]. Those found positive to the immunogen but not to the non-family member Id protein or KLH were tittered on the immunogen. In addition to normalizing for different binding affinities and concentrations, each hybridoma supernatant was titered on the fully human form of the Id protein used as the immunogen(s) for the V regions. The titer or dilution resulting in an ELISA absorbance of 2.5 to 3 OD after 30 min. incubation time was then used. Hybridoma specificity was determined by screening against available Id proteins expressing the same HV and KV or LV as well as different HV, KV and LV. The final ELISA results are expressed as follows: 0 (<0.5 OD), 1 (0.5-1.0 OD), or 4 (1-4 OD). Positive hybridoma supernatants are categorized according to specificity: anti-Id, anti-constant region (HC, KC or LC), or V region (HV, KV, LV family or family member).
(§2) In general, the fully human Id protein or proteins containing the immunogen V regions were coated onto 96-well ELISA plates at 2.5-5 ug/mL in carbonate buffer pH 9.6 and incubated at 4° C. for up to 14 days. On the day of the ELISA, plates were brought to RT and blocked with Tris-Tween-20, pH 7.6 for 15-60 min. at RT. Following a NaCl and Triton X-100 wash, diluted hybridoma cell culture supernatants were incubated overnight at 4° C. Hybridoma supernatant dilutions ranged from 1:2 to 1:25 and were prepared in PBS with 5% BSA. Plates were washed and incubated with HRP-conjugated goat anti-mouse IgG-specific detecting antibody. A chromogenic substrate (TMB) was used to measure the amount of mouse antibody bound to each well. The reaction was stopped at or before 30 minutes with IN H2SO4 and plates were read immediately. Absorbency readings at 450 nm ranging between 0-4 OD and using Molecular Devices plate reader and SOFTMAX PRO software.

786 = molecular target: T2, 786
T2 construct: H3-7 K3-15; also called PIN786
Source text: as §1, §2

902 = molecular target: T3, 902
T3 construct: H3-7 K3-20; also called PIN902
Source text: as §1, §2

112 = molecular target: T4, 112
T4 construct: H4-39 K4-1; also called PIN112
Source text: as §1, §2

529 = molecular target: T5, 529
T5 construct: H3-48 K4-1; also called PIN529
Source text: as §1, §2

585 = molecular target: T6, 585
T6 construct: H4-59 K4-1; also called PIN585
Source text: as §1, §2

631 = molecular target: T7, 631
T7 construct: H4-34 K4-1; also called PIN631
Source text: as §1, §2

628 = molecular target: T8, 628
T8 construct: fully human Id protein; also called PIN628
Source text: as §1, §2

192 = molecular target: T9, 192
T9 construct: H5-51 K4-1; also called PIN192
Source text: as §1, §2

792 = molecular target: T10, 792
T10 construct: H1-3 K4-1; also called PIN792
Source text: as §1, §2

518 = molecular target: T11, 518
T11 construct: H4-59 K4-1; also called PIN518
Source text: as §1, §2

566 = molecular target: T12, 566
T12 construct: H3-73 K4-1; also called PIN566
Source text: as §1, §2

912 = molecular target: T13, 912
T13 construct: H3-23 K4-1; also called PIN912
Source text: as §1, §2

1014 = molecular target: T14, 1014
T14 construct: H3-53 K4-1; also called PIN1014
Source text: as §1, §2

1088 = molecular target: T15, 1088
T15 construct: H2-5 K4-1; also called PIN1088
Source text: as §1, §2

1145 = molecular target: T16, 1145
T16 construct: H3-11 K4-1; also called PIN1145
Source text: as §1, §2

1154 = molecular target: T17, 1154
T17 construct: H4-61 K4-1; also called PIN1154
Source text: as §1, §2

1175 = molecular target: T18, 1175
T18 construct: H3-53 K4-1; also called PIN1175
Source text: as §1, §2

899 = molecular target: T19, 899
T19 construct: H4-34 K4-1; also called PIN899
Source text: as §1, §2

913 = molecular target: T20, 913
T20 construct: fully human Id protein; also called PIN913
Source text: as §1, §2

Measured: grade

T8 sequence (VH, as listed by the source, chain 1 of 2): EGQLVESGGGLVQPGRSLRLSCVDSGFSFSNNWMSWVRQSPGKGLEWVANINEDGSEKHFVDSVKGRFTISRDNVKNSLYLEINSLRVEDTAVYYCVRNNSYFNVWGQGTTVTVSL
T8 sequence (VL, as listed by the source, chain 2 of 2): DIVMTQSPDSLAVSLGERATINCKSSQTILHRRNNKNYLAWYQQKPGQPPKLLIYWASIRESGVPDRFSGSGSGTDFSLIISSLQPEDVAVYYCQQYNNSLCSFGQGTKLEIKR
T20 sequence (heavy, as listed by the source): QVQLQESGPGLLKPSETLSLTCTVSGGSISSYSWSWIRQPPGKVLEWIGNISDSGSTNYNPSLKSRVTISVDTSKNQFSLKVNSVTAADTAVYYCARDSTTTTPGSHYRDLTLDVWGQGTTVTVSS

B1: mAb clone 12C3 (antibody, V domains shown)
VH: EVKLVESGGGLVQPGGSLSLSCAASGFTYTDYYMNWVRQPPGKALEWLALIRNKANGYTTEYSASLKGRFTISRDNSQSILYLQMNALRAEDSATYYCVRENINYYFDYWGQGTTLTVSS
VL: DIVLTQSPASLAVSLGQRATISCRASESVEYFGASLMQWYQQKSGQPPKLLIRAATNVESGVPARFSGSGSGTDFSLNIHPVEEDDIAMYFCQQSRKVPWTFGGGTKLEIKR
notes: Mouse hybridoma mAb, fusions 20/21 (PIN628 V regions)
4: all assays above

— patent publication US20070134249A1 (GENITOPE, published 2007)
